Results on three molecules are retold here after paper PMC8213813, “Mechanism of genome instability mediated by human DNA polymerase mu misincorporation”.

The target in data set [1] is T1, DNA polymerase mu core domain K438A/Q441A (Homo sapiens, UniProt Q9NP87 136-494, K438A;Q441A;del398-410). The experiment in a line: X-ray crystallography; post-insertion; second dGTP (10 mM soak), 10 mM Mg2+, Na+; Crystals: protein (~7 mg/ml in 25 mM Tris/HCl pH 7.5, 100 mM KCl, 1 mM DTT) with DNA at 1:1.5; binary: 0.1 M sodium citrate pH 5.5, 18% 2-propanol, PEG4000; ternary: pH 6.5-8.0, PEG3350 or PEG10000; nucleotide/metal soak 4 h at 4 °C. As to conditions: protein: recombinant; tags: His (pET28a, nickel purified); template 9 nt + extended primer 5 nt + downstream primer 4 nt; nascent dG displaced by second dGTP.

In data set [2] the target is T2, DNA polymerase mu core domain (WT) (Homo sapiens, UniProt Q9NP87 136-494, del398-410). Description: X-ray crystallography; binary; Mg2+; Crystals: protein (~7 mg/ml in 25 mM Tris/HCl pH 7.5, 100 mM KCl, 1 mM DTT) with DNA at 1:1.5; binary: 0.1 M sodium citrate pH 5.5, 18% 2-propanol, PEG4000; ternary: pH 6.5-8.0, PEG3350 or PEG10000; nucleotide/metal soak 4 h at 4 °C. As to conditions: protein: recombinant; tags: His (pET28a, nickel purified); template 9 nt + upstream primer 4 nt + downstream primer 4 nt; 1-nt gap; blunt outer ends.

The target in data set [3] is T1, DNA polymerase mu core domain …. The experiment in a line: X-ray crystallography; dGMPNPP, 10 mM Mg2+ (Complex 5); Crystals: protein (~7 mg/ml in 25 mM Tris/HCl pH 7.5, 100 mM KCl, 1 mM DTT) with DNA at 1:1.5; binary: 0.1 M sodium citrate pH 5.5, 18% 2-propanol, PEG4000; ternary: pH 6.5-8.0, PEG3350 or PEG10000; nucleotide/metal soak 4 h at 4 °C. Conditions: protein: recombinant; tags: His (pET28a, nickel purified); template 9 nt + upstream primer 4 nt + downstream primer 4 nt; 1-nt gap; blunt outer ends.

Data set [4] has as its target DNA polymerase mu core domain Q441A (Homo sapiens, UniProt Q9NP87 136-494, Q441A;del398-410). The experiment in a line: X-ray crystallography; dGMPNPP, 10 mM Mg2+ (Complex 4); Crystals: protein (~7 mg/ml in 25 mM Tris/HCl pH 7.5, 100 mM KCl, 1 mM DTT) with DNA at 1:1.5; binary: 0.1 M sodium citrate pH 5.5, 18% 2-propanol, PEG4000; ternary: pH 6.5-8.0, PEG3350 or PEG10000; nucleotide/metal soak 4 h at 4 °C. As to conditions: protein: recombinant; tags: His (pET28a, nickel purified); template 9 nt + upstream primer 4 nt + downstream primer 4 nt; 1-nt gap; blunt outer ends.

Data set [5] deals with T2, DNA polymerase mu core domain (WT). The experiment in a line: X-ray crystallography; dGMPNPP, 10 mM Mg2+ (Complex 1); Crystals: protein (~7 mg/ml in 25 mM Tris/HCl pH 7.5, 100 mM KCl, 1 mM DTT) with DNA at 1:1.5; binary: 0.1 M sodium citrate pH 5.5, 18% 2-propanol, PEG4000; ternary: pH 6.5-8.0, PEG3350 or PEG10000; nucleotide/metal soak 4 h at 4 °C. As to conditions: protein: recombinant; tags: His (pET28a, nickel purified); template 10 nt + upstream primer 4 nt + downstream primer 4 nt; 2-nt gap; blunt outer ends.

T1 sequence (Q9NP87 other isoform, or with tags, fused parts or gaps K438A;Q441A;del398-410 | K438A Q441A K438A Q441A): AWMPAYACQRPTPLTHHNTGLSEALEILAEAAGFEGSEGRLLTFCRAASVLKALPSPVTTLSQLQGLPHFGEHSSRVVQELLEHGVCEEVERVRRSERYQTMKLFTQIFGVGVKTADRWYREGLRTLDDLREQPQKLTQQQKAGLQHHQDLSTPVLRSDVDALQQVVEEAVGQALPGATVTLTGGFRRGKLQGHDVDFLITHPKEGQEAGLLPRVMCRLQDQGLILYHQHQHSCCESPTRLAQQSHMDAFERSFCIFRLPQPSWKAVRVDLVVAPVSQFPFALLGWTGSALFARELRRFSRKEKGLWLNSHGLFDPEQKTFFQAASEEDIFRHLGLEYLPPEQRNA
T2 sequence (Q9NP87 other isoform, or with tags, fused parts or gaps del398-410): as the sequence (Q9NP87 other isoform, or with tags, fused parts or gaps K438A;Q441A;del398-410 | K438A Q441A K438A Q441A) above, with A290K, A293Q counted along it
Sequence of DNA polymerase mu core domain Q441A (Q9NP87 other isoform, or with tags, fused parts or gaps Q441A;del398-410 | Q441A Q441A): as the sequence (Q9NP87 other isoform, or with tags, fused parts or gaps K438A;Q441A;del398-410 | K438A Q441A K438A Q441A) above, with A290K counted along it

B1: 1-nt gapped DNA after dGTP insertion (T:G product) (dsDNA)
DNA 1: CGGCTTACG
DNA 2: CGTAG
DNA 3: GCCG
modifications: 5'-phosphate on downstream primer
Regarding B1, the binding result in data set [1] was “binds”.

B2: 1-nt gapped DNA, templating T (crystallization) (dsDNA)
DNA 1: CGGCTTACG
DNA 2: CGTA
DNA 3: GCCG
modifications: 5'-phosphate on downstream primer
For the molecule B2, the binding result in data set [2], in data set [3] and in data set [4] was “binds” in each case.

B3: 2-nt gapped DNA, templating TT (crystallization) (dsDNA)
DNA 1: CGGCTTTACG
DNA 2: CGTA
DNA 3: GCCG
modifications: 5'-phosphate on downstream primer
As for B3, the binding result in data set [5] was “binds”.
